Source: patent US20240317859A1 (FOUNDATION FOR BIOMEDICAL RESEARCH AND INNOVATION AT KOBE, published 2024)
Where a chain is given by its changes, count along the chain named. In names and notes the source's numbering stands.

B1: HM297-G5 (antibody, human IgG1, V domains shown)
VH: QVQLVQSGPEVKKPGASVKIPCKASGYTFTDYNVDWVRQVPGQGLEWIGDIDPNNGGTIYNQKFKDKATLTVDKSTRTAYMELRSLRSDDTAVYYCARWRGAMDYWGQGTLVTVSS
VL: DIQMTQSPSSLSASVGDRVTITCRASQDIDNYLKWYQQKPDGTVKLLIYDTSRLHSGVPSRFSGSGSGTDYTLTISSLKQEDFATYYCQQGYTLPWTFGQGTKLEIK
notes: also called humanized HM297, VH ver.G / VL ver.5
B2: HM297-F6 (antibody, human IgG1, V domains shown)
VH: B1 VH with V40S, P41H, Q43K, G44S, K67R, A68V, L70M
VL: B1 VL with D41G, G42K, T43A, V44P, K79Q, Q80P
notes: also called humanized HM297, VH ver.F / VL ver.6
B3: HM297-E6 (antibody, human IgG1, V domains shown)
VH: B1 VH with V11L, K12V, V40S, P41H, Q43K, G44S
VL: B1 VL with D41G, G42K, T43A, V44P, K79Q, Q80P
notes: also called humanized HM297, VH ver.E / VL ver.6
B4: HM297-F5 (antibody, human IgG1, V domains shown)
VH: B1 VH with V40S, P41H, Q43K, G44S, K67R, A68V, L70M
VL: B1 VL
notes: also called humanized HM297, VH ver.F / VL ver.5
B5: HM297-H4 (antibody, human IgG1, V domains shown)
VH: B1 VH with I48M, K67R, A68V, L70M
VL: B1 VL with S7T, P8T
notes: also called humanized HM297, VH ver.H / VL ver.4
B6: HM297-H6 (antibody, human IgG1, V domains shown)
VH: B1 VH with I48M, K67R, A68V, L70M
VL: B1 VL with D41G, G42K, T43A, V44P, K79Q, Q80P
notes: also called humanized HM297, VH ver.H / VL ver.6
B7: HM297-G6 (antibody, human IgG1, V domains shown)
VH: B1 VH
VL: B1 VL with D41G, G42K, T43A, V44P, K79Q, Q80P
notes: also called humanized HM297, VH ver.G / VL ver.6
B8: HM297-I4 (antibody, human IgG1, V domains shown)
VH: B1 VH with I20V, P21V, I48M, K67R, A68V, L70M, K74T
VL: B1 VL with S7T, P8T
notes: also called humanized HM297, VH ver.I / VL ver.4
B9: HM297-E4 (antibody, human IgG1, V domains shown)
VH: B1 VH with V11L, K12V, V40S, P41H, Q43K, G44S
VL: B1 VL with S7T, P8T
notes: also called humanized HM297, VH ver.E / VL ver.4
B10: HM297-I5 (antibody, human IgG1, V domains shown)
VH: B1 VH with I20V, P21V, I48M, K67R, A68V, L70M, K74T
VL: B1 VL
notes: also called humanized HM297, VH ver.I / VL ver.5
B11: HM297-F4 (antibody, human IgG1, V domains shown)
VH: B1 VH with V40S, P41H, Q43K, G44S, K67R, A68V, L70M
VL: B1 VL with S7T, P8T
notes: also called humanized HM297, VH ver.F / VL ver.4
B12: HM297-G4 (antibody, human IgG1, V domains shown)
VH: B1 VH
VL: B1 VL with S7T, P8T
notes: also called humanized HM297, VH ver.G / VL ver.4
B13: HM297-E5 (antibody, human IgG1, V domains shown)
VH: B1 VH with V11L, K12V, V40S, P41H, Q43K, G44S
VL: B1 VL
notes: also called humanized HM297, VH ver.E / VL ver.5
B14: chimeric HM297-IgG1-K322A (antibody)
heavy: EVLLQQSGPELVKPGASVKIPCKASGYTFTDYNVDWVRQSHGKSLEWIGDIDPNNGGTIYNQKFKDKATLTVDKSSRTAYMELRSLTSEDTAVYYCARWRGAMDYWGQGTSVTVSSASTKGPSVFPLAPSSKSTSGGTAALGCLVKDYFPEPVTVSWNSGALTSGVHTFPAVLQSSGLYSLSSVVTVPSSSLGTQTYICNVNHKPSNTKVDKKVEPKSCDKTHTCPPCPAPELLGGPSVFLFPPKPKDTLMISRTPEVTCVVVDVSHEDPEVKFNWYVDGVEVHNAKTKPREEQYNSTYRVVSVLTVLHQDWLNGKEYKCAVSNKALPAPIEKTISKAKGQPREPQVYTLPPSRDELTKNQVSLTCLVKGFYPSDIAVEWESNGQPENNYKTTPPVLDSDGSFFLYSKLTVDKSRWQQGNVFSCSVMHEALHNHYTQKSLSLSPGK
light: DVQMTQTTSSLSASLGDRVTISCRASQDIDNYLKWYQQKPDGTVKLLIYDTSRLHSGVPSRFSGSGSGTDYSLTISNLKQEDIATYFCQQGYTLPWTFGGGTRLEIKRTVAAPSVFIFPPSDEQLKSGTASVVCLLNNFYPREAKVQWKVDNALQSGNSQESVTEQDSKDSTYSLSSTLTLSKADYEKHKVYACEVTHQGLSSPVTKSFNRGEC
notes: Mouse Fab region with the Fc region of human IgG1-K322A

Key:
[1] = target: human PD-1 (wild-type), expressed on cells (human, UniProt Q15116 25-288); assay: cell-based or functional assay
human PD-1 (wild-type), expressed on cells, sequence (Q15116 25-288 limits assumed): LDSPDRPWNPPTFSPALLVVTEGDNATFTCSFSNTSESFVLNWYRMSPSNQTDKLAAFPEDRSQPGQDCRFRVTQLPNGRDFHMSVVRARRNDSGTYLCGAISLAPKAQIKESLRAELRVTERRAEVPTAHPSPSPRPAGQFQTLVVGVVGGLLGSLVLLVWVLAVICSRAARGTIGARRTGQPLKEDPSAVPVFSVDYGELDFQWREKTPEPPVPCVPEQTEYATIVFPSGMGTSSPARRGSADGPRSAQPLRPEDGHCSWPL

[2] = target: Human PD-1/PDCD1 Protein (PD-1) (human, UniProt Q15116 25-167, limits assumed); assay: SPR, Biacore 8K; PD-1 captured by anti-His antibody, antibody in flow
Human PD-1/PDCD1 Protein (PD-1), sequence (Q15116 25-167 limits assumed): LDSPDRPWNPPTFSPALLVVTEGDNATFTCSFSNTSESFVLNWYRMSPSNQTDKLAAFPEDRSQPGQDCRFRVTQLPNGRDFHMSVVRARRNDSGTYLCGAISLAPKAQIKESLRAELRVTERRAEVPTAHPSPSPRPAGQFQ
Procedure: The binding affinity of each antibody to human PD-1 was measured with Biacore 8K (Cytiva). Briefly, anti-His Tag antibody was immobilized by amine coupling using Amine Coupling Kit and His Capture Kit, onto 8 channels of a sensor chip (provided with 16 flow cells; one channel consisting of two flow cells) which had carboxymethyl dextran immobilized on a gold film. The immobilization was performed by feeding an activation solution (NHS and EDC mixed in equal amounts) at a flow rate of 10 μl/min for 7 minutes, an immobilization solution at a flow rate of 5 μl/min for 7 minutes, and 1 M ethanolamine hydrochloride-NaOH (pH 8.5) at a flow rate of 10 μl/min for 7 minutes. The buffer used at the time of immobilization was 1×HBS-EP+ Buffer. After the immobilization and before applying a sample, Human PD-1/PDCD1 Protein (PD-1) adjusted to 1 μg/ml with 1×HBS-EP+ Buffer was fed to one of the two flow cells of each channel in an amount of 20 μl at a flow rate of 10 μl/min to thereby capture PD-1 on the sensor chip. As regards the other flow cell, 1×HBS-EP+ Buffer was fed in the same manner to prepare a control flow cell. Each antibody was adjusted to 16 nM with 1×HBS-EP+ Buffer, and then subjected to 2-fold 7-step serial dilution using 1×HBS-EP+ Buffer. The resultant sample solution (30 μl) was fed to each flow cell at a flow rate of 10 μl/min and the response was measured. After subtracting the response of control flow cell from the response of the flow cell which was allowed to capture the ligand, KD value was calculated by curve fitting using Biacore 8K Evaluation Software.

| Binder | Cell-cell contact assay [1] | Kd [2] |
| --- | --- | --- |
| B1 | 102 ng/mL | 0.232 nM |
| B2 | 150 ng/mL | 4.83 nM |
| B3 | 65.4 ng/mL | 12.6 nM |
| B4 | 98.9 ng/mL | 2.35 nM |
| B5 | 185 ng/mL | 0.221 nM |
| B6 | 141 ng/mL | 1.86 nM |
| B7 | 59.7 ng/mL | 1.89 nM |
| B8 | 65.6 ng/mL | 4.84 nM |
| B9 | 100 ng/mL | 0.129 nM |
| B10 | 94.9 ng/mL | 2.2 nM |
| B11 | 92.3 ng/mL | 24.1 nM |
| B12 | 55.4 ng/mL | 0.451 nM |
| B13 | 78.6 ng/mL | 50.2 nM |
| B14 | 78.3 ng/mL | 0.0493 nM |
